Experiment: soluble on expression in E. coli; label from the status in PepcDB or PDB records

Sequence | soluble on expression in E. coli
MYPQQTSAAVGARKMRVVGVVEETHDARSILVEPHPEHIDAFDYRPGQFLTVRVPDVGSGTARCYSLSSSPHVDSTMKFTVKRVAGGHGSNWLCDEIALGDELEVLPPAGTFTVRSLDQSVVLVAGGSGITPVIAIAKSILHAGTGTVLLVYANRDERSVIFGEQLRELGERFGSRFTVIHVLESVQGYLTAPAMSNLIRPFTDRAVYICGPEPLMKLVKAVCSAEGIAPSQVMTERFVSLSTDPFRNPVEDKPSTSDTGVEVSAQDEAAAGDCTVHVSLDGTERTVAWPRSKRLLDALLDAGVEAPFSCREGACSACVCSLTEGEVRLVRNEVLEADDLADGYILACQAEVVTDQISIKY | not soluble
MKTVLAFGDSLTWGADPATGLRHPVEHRWPDVLEAELAGKAKVHPEGLGGRTTCYDDHAGPACRNGARALEVALSCHMPLDLVIIMLGTNDIKPVHGGRAEAAVSGMRRLAQIVETFIYKPREAVPKLLIVAPPPCVAGPGGEPAGGRDIEQS | not soluble
MGSDKIHHHHHHMQSTALRYFLEVARCGSISEASVRLNVASSAVSRQISKLERELDALLFERQARGMMLSEAGIRLAAYARKSQLEAEQVVLEITELQGLQRGHVRIACSEGFALDFLPQCIARFRRLYQGIHFSMEVCAPAQATERVRSGDADLCLTFSLTPQNEIKVEHIHSGAICAVVSHNHPLASRKEVALAELQPYAIALTNTDTTLRQLFDICCGVQGLMFDPVLTSNYIGSLLRFVSEEGGISLSSEMTLDKRVHEKQLKSLPISDEGMKARRIELQSMAGRNLPAAVAAFRDFLIEELAKT | not soluble
MAAAENRVQQVKGILTMAINNGTLWQVIDMRNNERLNCVDMAVRAGSETCAMLITKVAREYAKHRPRSEVEKKFDSMPTTEEDVTISLGPKTADTFDDNYVKELVRQSESASGHAVATKKLSREKISNSLAKGNVAAVQGREYLKMVKRSSSAHSRLMSQRTFSVESGSIDSSEPSTPQLTSPPADHGVFSSVGEKIRNIFGKKPPLHTKSLSVVQTDRIAAPAVRSSSISNKPLSYQTSGNSNEEDHLRLPQHSSSSESPPSEGPSNSGLFRWSSKDKPMTSTVSTANGVRLPPLSLRRRTNSDPKNRDFTSLGGDE | not soluble
MAHHHHHHMPRKETKKRKRAPSSAKESVSSTDEQGKRGGAFSKFKEFDVSELLQKPQEVPEIQPVVEEQPCSPCDEVVADPPPLTATDTVEATSEEPAAPIPQLIPPEPLKDLPPDEEFVPLPTIQVVPMMNRALEAQSGLLKEPAPPASIQRVTQPGALPPAMPTALMELLSG | soluble
MENIHDLWERALKSMEKKVSKPSFETWLKQTKANSIEDSTIIITAPNEFARDWLEKHYDELISETIDDLTGVRLYPKFVIPTSQLDEPFVEQELKKPMKQPPAQNGEMPNNMLNDKYTFDTFVIGSGNRFAHAASLAVAEAPAKAYNPLFIYGGVGLGKTHLMHAIGHYVMDHNPNAKVVYLSSEKFTNEFINAIRDNKAVNFRNKYRNVDVLLIDDIQFLAGKEQTQEEFFHTFNALHEDNKQIVISSDRPPKEIPTLEDRLRSRFEWGLITDITPPDLETRIAILRKKAKAENLDIPNEVMLYIANQIDTNIRELEGALIRVVAYSSLINQDMNADLAAEALKDIIPNAKPRVLTITDIQKTVGEYFHVKLEDFKAKKRTKSVAFPRQIAMYLSRELTDASLPKIGSEFGGRDHTTVIHAHEKISKLLSTDQELQDKIQDISDKLRSLEHHHHHH | soluble
PAGPFTRALWEASGDIIAGINSSDFITMLGDGTLRRPEFDFYIDQDAQYLAQYSRALARLSSIAPDSHAQIEWAQSAAECLVVEAELHRSYMAGKEVSAPSHITMAYTDFLIARTYTEDYVCGVAAVLPCYWLYAEIGLMLAEQNHDEHPYKDWLNTYSGEEFIAGTRAAIARLEKALENAGAEQRVDAARAFLSASVHEREFFDQATRHG | not soluble
MGSSHHHHHHSSGLVPRGSHMLELRLVQGSLLKKVLESIKDLVNDANFDCSSTGFSLQAMDSSHVALVSLLLRSEGFEHYRCDRNLSMGMNLGNMSKMLKCAGNDDIITIKADDGGDTVTFMFESPTQDKIADFEMKLMDIDSEHLGIPDAEYHSIVRMPSNEFSRICKDLSSIGDTVVISVTKEGVKFSTAGDIGTANIVLRQNTTVDKPEDAIVIEMKEPVSLSFALRYMNSFTKATPLSDTVTISLSSELPVVVEYKVAEMGYIRYYLAPKIE | soluble
MKVYYECAPCFLRQAREAIDLATDDEELKLRVMENILELLSERFRRGQVSNELGTRMHRLIKDMTGSEDPYLDEKRRCNEIALRFLPTVRDYLECHSDLESHVKVAITGNIIDFGALGLDFDHDRGIQESLRAPLTINHVPLLEDRLREASEVLYLLDNTGEILFDRPLIEKLAGYDVSVKVAVKGEPILNDACMEDALEAGLDEVAEIVTTGTDSVGIVYSDLSDEFRDMLDGTELVIAKGMGNYEGLTEISDGSRDIFCLLNAKCSAIARDLGVARGDNVAVKI | not soluble
MTKKYDLHCHSTASDGVLSPTELVHRAYAQGVNVLALCDHDTIAGIDEAEIAAKEVGIELITGVEISTNWEGRGIHIVGLNFDKTHPKMTALLQSQKALREKRAVEIGDKLEKAGIPNAYDGAKALADGEVTRAHYARYLVQIGKVSNDGQAFKRYLGQGKSAFVKAEWADIPTAIETIHAAGGIAIIAHPLRYNMTGKWVRKLIVDFKAWGGDGMEMADCGQTKDQRQMLARWAKEFDLQGSVGSDFHFPCGWIELGKNLDLVDSVIPVWEKFLEHHHHHH | soluble
MGSDKIHHHHHHMYDAQAVQTLSSCLLRLKEGKGIGTLVSEDEADLPKVMTRLKQFDPSKNGLSINEIVHLANALIGEHMSATTIQNWTKREVRDIIGVPHRGKKYSINQAAIIYLLDDLKHLFSLEETRELLTIVFKNPNIDEDDLISPLDFYLVYTQHAETSGPIELTEKRLRRSLERINAYRPETVHVLQLCLYARRISHLTHEAKQRLQHVLQT | not soluble
ILEQDLNDFMSTGAHGLDLYQLVVGGTAPMLNLVEKGKIPPPATTPEKAGMYELGVNFMAKHHMKQLSVNHWAVDNRERSLYNSLAKTYAE | not soluble
MVDVIVIGAGIGGLTAAALLQERGFSTVVFEKNRFPGGSCSSFEKGGYTFDAGASVFYGFCDDDAMGTLNLHSRIFRKLGIAVETIPDPVQIHYHMPGGFDVPAWFDRDRFLESLCRRFPHERTGIRKFYDELESVYEILNSLPAGSLEDVIHLGVVGARHPLKVMALGVKTLFSMGNVARRYISDKELLRFIDLEAYSWAVQDAVSTPLVNAGICLADRHHGGINYPVGGSGTIPAALVKGFEKFGGSIRFGSEVSKVIVKNGSAVGVRLSDGTEVSAKAVVSNATVWDTFSKLVDDPRLRIPDDRFIKAPSWFQIWLGVDGSIVPPGFHMHHIIVDDWSKYDELGGTIYFSAPSVLDPSLAPPGKHALHLFVTAETWQWEQYEYRSQEYKAAKEAFAKSLIARAERLLPGIQDATELMVTATPQSHARYLNRRDGSYGPLLKPGQNILLKPQNRTPIKNLFAAGDSTFPGQGVIAVTYSGVSCASYIARQLGKALDYLLEHHHHHH | not soluble
MAHHHHHHMQMRRDALGNGKALEFAKELSLAYKQVIQATQHIGKQRQALTGCTDLSVKTREWAAAEHDIAGALEKYGAAPYWVEQRGWRPGRLQSFEAAHSRASSGTEVSYLCSRLRGYVKAAFTAHVTKPPKLNASEVDVAELLTFFTGSGDGALVVEVALAKFFVVENMHVRAPELWVMNYLLHCYGVEEGIMLAHEADVVDGGFKQQGGGAFEEQFLIQKNIWAVSQVLVPHCYAVTRCDEATAKAGVEACVRCEGTEGQGTEGAFPTWPGTPPASLPPAYRLARSVNDYGKEAGEDKTSRIIGELDGVIYDASARQVLLVLEAKQNIDVCKAFKQKERLYNALDATRKTLSQASQGAALTAVQLSAENETKTATTTAAGRNATPAAEAACAASTKLHTEPVVLRFFVTPTTAAEAARENFSVNGCSLVTGVGAEPAANFQDMRNSGDMASAAAPPVRSKAAAARLATAGNPFFTQDNFAAFFGATASAVQGDSTAPSPTPTRSDSMTPRHLGRDQRWIYLTSLSTGNSPGARTTVPAPGGTIHMVELTLVKTACNFVAEAYDSYFQISTLPPTATPALQSLVSAMRVCSAYAPETEPMALFHLFLELPPQECISARAETAAVSRSDPCEYVLHLFRHDVRCKDGAAALEQVWLRENFIDGLVLSEHSFI | not soluble
MQDYTVHIVDDEEPVRKSLAFMLTMNGFAVKMHQSAEAFLAFAPDVRNGVLVTDLRMPDMSGVELLRNLGDLKINIPSIVITGHGDVPMAVEAMKAGAVDFIEKPFEDTVIIEAIERASEHLVALE | soluble
MGSDKIHHHHHHMVDQSQLRQWGCKVIDIEKSALDNLYQYVDSAEFAQACELILNCSGKVIVMGMGKSGHIGNKISATLASTGTPAFFVHPGEASHGDLGVLSDNDIILAISNSGESSEILALMPVIQRKAIPVIAMTGKPESTMARLAKIHLCIEVPEEACPLGLAPTSSTTATLVMGDAMAIALLQAKGFTRDDFAMSHPGGALGRKLLLKVSNVMHCGDDLPLVKHDICITDALYEISKKGLGMTAIIDEQNKLVGIFTDGDLRRVIDAQVNLRTTPIADVMTRNCVTITENVLAAQALQVMDSRNINGLIVIDKENHPVGALNMLDMVKAGVI | not soluble
SIEKARSAAAKEVQKMKTSDKAEATHYLQMGAYADRQSAEGQRAKLAILGISSKVVGYQAGHKTLYRVQSGNMSADAVKKMQDELKKHEVASLIRSIESK | not soluble
LEILRKNRINEPCIKLNTHSIANKIYATENYIIGIPTDHPDEISDAFTKSVAALLAKSNGIRTPELICFDDSYTIKALDKKLHKIGKAEDGACNLILDMLRLLRLAKDLF | not soluble
MEKHLLISKGCKGWGGPLTITPGQGKKIAYITGGIRPPVVDRLSELTGWPSIDVFKNGEPPAEEIGLMVIDCGGTLRCGLYPKRGIPTINLHPTGKSGPLAEFIHEGIYVSGVTPACIEMVWPQGEGGKLGIVADDLTGATTVGVLLARSGLKTAAFFDTESFARNEVEYPAMVVSSDSRPLPKAEAQHKVSAAVKQLQARGAHYFTKRIDTTLRGGIGFEIDAMLEQLPQETVAVVVPAMPQSRRILVGGYSVIDSVALSRTDVARDVRTPVTESWVPGLLAAQTHHQVGHIALTSVMKGEGQIQQDLQEQQQRGVRVIVVDAITVDDVDAIAGAVVALNWNVLTVDPGPFTERLAVRRGLMREARSSAPASLTADGQRGSILIVAGSATPVTKKQLQYLIANDARVCHIPVDAELLVDRKNAAEIEVNRVVQHARQCVPAQHNALFVFESALTGRLLNLQEEEQRFGLAHGEAAQNINHGLGSIVREVLNCASGEIKGLYMTGGDTMVNVLKELGATGIEMIDYVIPQTDMVRIIGGDYAGLICVGKGGLTGPEDIISIIVDRIYQEAQ | not soluble
MNYLEGVGSKKGGGGIASESQFNLQRRKEVESLLSKGENVPYTFQDEKDDQVRSNPYIYKNHSGKLVCKLCNTMHMSWSSVERHLGGKKHGLNVLRRGISIEKSSLGREGQTTHDFRQQQKIIEAKQSLKNNGTIPVCKIATVKNPKNGSVGLAIQVNYSSEVKENSVDSDDKAKVPPLIRIVSGLELSDTKQKGKKFLVIAYEPFENIAIELPPNEILFSENNDMDNNNDGVDELNKKCTFWDAISKLYYVQFFFKQAEQEQADV | soluble
MSYLSAIENQENMVVKQEIKIEEEDDDYPLSTIDMAVQALIRNPHHNVDYICGVMIFGGSKNQFNELLNPVVVAQMSKQRKQKKVPVKNPAGEAKRGRGRPRKQSSEEKVQIPKVVVKFEPKKRGRPAGAAKWSQEVAVVLQKQPQRKRGRPLKIAKKIEPVFHQKKESKQNSEEKALIQQEAVKGEPKNRGRPCGAAERSREVVKKLQKQPPRKRGRPLKIAKNMEPEINQKKDTKQVHVCPICTLASKNGTCLCTKCQKWVHLKCTGIRSKQWNSQFQCKNCTC | not soluble

From the DeepSol protein solubility set
